# B1: Azoarcus group I ribozyme (parent)
# chain: GUGCCUUGCGCCGGGAAACCACGCAAGGGAUGGUGUCAAAUUCGGCGAAACCUAAGCGCCCGCCCGGGCGUAUGGCAACGCCGAGCCAAGCUUCGGCGCCUGCGCCGAUGAAGGUGUAGAGACUAGACGGCACCCACCUAAGGCAAACGCUAUGGUGAAGGCAUAGUCCAGGGAGUGGCGAAAGUCACACAAACCGG
# Variants of: B1
# Experiment: reverse-splicing fitness (ratio to wild type); higher = more active; in vitro selection; Mg2+ level not given
# In short: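 An in vitro group I ribozyme library with randomized positions was T7-transcribed and gel-purified. In triplicate, 10 pmol RNA in EPPS pH 7.5 was reacted with 50 pmoles of a 30-nt RNA substrate for 1 h at 37 °C across several added MgCl2 levels (1–48 mM), then stopped with EDTA. Products were reverse transcribed from a substrate-complementary primer, PCR-amplified and sequenced (HiSeq 4000). Fitness is a variant's read proportion after selection over that before, normalised to wild type.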
row,Variant,reverse-splicing fitness
1,A111C A145G C150A C169A U176A,0.0169
2,A111C A145G C150A C169A U176C,0.0182
3,A111C A145G C150A C169A U176G,0.00852
4,A111C A145U C169U U176C,0.0282
5,A111C A145U C169U U176G,0.00798
6,A111C A145U C169U U176A,0.0258
7,A111C A145C C150A C169U,0.0128
8,A111C A145C C150A C169A,0.00829
9,A111C A145C C150A C169G,0.00874
10,A111C A120U A145U C150G U176C,0.0313
11,A111C A120U A145U C150G U176G,0.00462
12,A111C A120U A145U C150G U176A,0.0214
13,A111C A145U C169G,0.071
14,A111C A145U C169A,0.0348
15,A111C A145U C169U,0.116
16,A111C A120U C169A U176A,0.00319
17,A111C A120U C169A U176G,0.00232
18,A111C A120U C169A U176C,0.00293
19,A111C A145C U176C,0.372
20,A111C A145C U176G,0.217
21,A111C A145C U176A,0.402

row,Variant,reverse-splicing fitness
1,A111C A145U C150U C169A U176C,0.0129
2,A111C A145U C150U C169A U176A,0.0122
3,A111C A145U C150U C169A U176G,0.00758
4,A111C A145G C150U U176A,0.313
5,A111C A145G C150U U176C,0.404
6,A111C A145G C150U U176G,0.135
7,A111C A145U C150U C169G U176C,0.0215
8,A111C A145U C150U C169G U176A,0.0147
9,A111C A145U C150U C169G U176G,0.00734
10,A111C A145C C150U U176C,0.349
11,A111C A145C C150U U176A,0.219
12,A111C A145C C150U U176G,0.11
13,A111C A120U A145U C150G C169A U176C,0.0035
14,A111C A120U A145U C150G C169A U176G,0.00296
15,A111C A120U A145U C150G C169A U176A,0.00343
16,A111C A145C C150U C169A U176A,0.0139
17,A111C A145C C150U C169A U176C,0.00847
18,A111C A145C C150U C169A U176G,0.00708
19,A111C A145G C150U C169U U176A,0.0237
20,A111C A145G C150U C169U U176C,0.0254
21,A111C A145G C150U C169U U176G,0.00751

row,Variant,reverse-splicing fitness
1,A111C A145C C150G C169G U176A,0.00768
2,A111C A145C C150G C169G U176G,0.0057
3,A111C A145C C150G C169G U176C,0.00915
4,A111C A145U U176G,0.276
5,A111C A145U U176A,0.424
6,A111C A145U U176C,0.398
7,A111C A120U A145U C150G C169U U176G,0.00279
8,A111C A120U A145U C150G C169U U176C,0.00398
9,A111C A120U A145U C150G C169U U176A,0.00284
10,A111C A145C C150G C169G,0.0102
11,A111C A145C C150G C169A,0.00983
12,A111C A145C C150G C169U,0.018
13,A111C A145C C150G U176C,0.13
14,A111C A145C C150G U176A,0.0871
15,A111C A145C C150G U176G,0.0182
16,A111C A120U A145U C169A,0.00546
17,A111C A120U A145U C169G,0.0574
18,A111C A120U A145U C169U,0.0751
19,A111C C150G C169G,0.00897
20,A111C C150G C169A,0.00834
21,A111C A120U A145U U176G,0.0748

row,Variant,reverse-splicing fitness
1,A111C A120U A145U U176A,0.221
2,A111C A120U A145U U176C,0.271
3,A111C A145G C150U C169U,0.0877
4,A111C A145G C150U C169G,0.0511
5,A111C A145G C150U C169A,0.0243
6,A111C A120U C150G,0.0546
7,A111C A120U C150U,0.416
8,A111C A120U C150A,0.0711
9,A111C A145C C150G C169U U176C,0.0119
10,A111C A145C C150G C169U U176A,0.00817
11,A111C A145C C150G C169U U176G,0.00607
12,A111C A145U C150U U176C,0.36
13,A111C A145U C150U U176A,0.365
14,A111C A145U C150U U176G,0.166
15,A111C C150A C169U U176A,0.0226
16,A111C C150A C169U U176C,0.0184
17,A111C C150A C169U U176G,0.00825
18,A111C A120U A145U C150U U176C,0.215
19,A111C A120U A145U C150U U176G,0.0348
20,A111C A120U A145U C150U U176A,0.182
